This is an account of results in the DeepSol protein solubility set.

The series is described as follows: soluble on expression in E. coli; label from the status in PepcDB or PDB records.
For “MGSDKIHHHHHHMLIDEEITLKKLETFLAFMRTGNLARAAAELGTSNVSVHRAIHSLESALRCPLFKHEGRNLTPLESAYVLEERAQKLVQEVLDTVRLTREAAGFSAERFKLGALYSLTVKTVPQLIMGLKLRRSALNIDLILGSNVDLFYQLKNMELDAILVSLNDSVSDPDCEHLPLFSDDIFLAVPVDSPYARLAEIDLSTLRDTPFVTLTQGFATHQDGTRVFQQAGFEPQIAMQVNDIFTLLSMVSSGVGHALLPKRIEAVYENRVRLIPLQPRYRLQQHIGVVFLKAKERDPNLLALLAECRMYSLRLEQEAAG”, the “soluble on expression in E. coli” value was “not soluble”.
“MHPDQKKTFKEKNDIRKKLFNSTKEERLDWRKMKDEKKRKNEEKIIKEAEEAKKAKIEKVDHTPPFTISIAVPGQFLNNAQSAELRTYMAGQIARAATLYRVDEIIIYDESCRMTDEAVNAYYNGTWQGNLIPAETNYEGCFYLAKILEYLECPQYLRKDLFPIQKPLKNAGLLNPLDAQHHLKYDEKTLRFREGVVLKKRSKDGRGPICNIGLEKEFEIDSDAVQLPPYTRVTVEIKNLTEQCKLYRGSITSGATVTRETGLYWGYSVRLMTGLQKVLQAKKFDIVAGVSPRGKLASQMDVCILNKPKILLVFGGVAGVDAAVESEELAEWRRAEDAFDVLIRTTSLSNGSRSERVEENVLSVLAQVQCHLETLNAL”: the “soluble on expression in E. coli” value was “not soluble”.
Under “MSNVVVCALYKFVSLPHFESLREPLLSMMEQAEIKGTLLLASEGINGTVAGNQAAIDALLIWLNQQNGLENITYKLSFDDEMPFYRTKVKLKKEIVTMGVEGIDPLKVVGTYVKPKDWNALISDPEVVLVDTRNDYEVQIGTFKNAINPVTETFREFPEYVKQNLDPAKHKKVAMFCTGGIRCEKSTAYLKEQGFEEVYHLEGGILKYLEEVNKAESLWEGECFVFDNRVAVDHDLKKGQYDQCNACRMPITEAEKLTPDYVQGVSCPHCIDKISEEQRKRFVERERQVNLAKSRNEAHIGSDVNHVIEARRQKKEALRKQSAEKNKAKQANALEHHHHHH” stands “soluble”; under “MSLTKHVAVLLAHGFEEAEAVIFIDIMRRLDIRVDILSCEATTALSTYFETPISADALLSDRLDHHYDAVMMPGGPKGTDSLTANPQVIAFLRRHIAQDKYICALCSSGAKVLAAHHLLAGRTYSTGDKLADKFADGVYLDQDVVVDGKFITAKGLGVSFEFAFTVARHLLSDNLPKVEHQASHIYFKHGSAEGHHHHHH”, “soluble”.
Under “MGSDKIHHHHHHMSDDTIDRFFGYLNWLFNPFHGLKTTEVYDLIGTSSLTENALYLNLGYWRKADTIDEASEALALLVAKRGGMGPGDIVLDCGYGFGDQDILWARQLKPEKIIGLNITSSQVERARKRVADAGLEQSIDLREGSATAMPIENESIDLVVSVESAFHYRTREAFFREAFRVLRPGGRLVTADIVPTENSGNPFRRMEQWFSWNLVAGKFNIPQENYYLIPSYQNKLTKAGFVQIDIKSIRDDVYEPLHAYLAKNRTFFAKMHPLARIMAQLTLNRSAESVYAGLDYILSYAEKP” stands “not soluble”.
Take “MRHLRFENLTEEQLKRLAKILTENLKGGEVVILSGNLGAGKTTFVKGMIRAIGLDEKMVKSPTFTLMNVYPGLKTIYHLDLYRLQDTDFLSLDVEDILEDEDGIMVVEWGDLFDGFWPEDSIKVKIEIADESHRNVEILIPEEVNFLVEKIERYRKELQNT”: the “soluble on expression in E. coli” value is “soluble”.
Under “MVDTMMNTNTDGVTAVPPIFPLPSTTPNRNNNNELAMLAQKQIVAGLLLQQPTIVQAAVNGTNSQKHLADIDYTNVIQTLQALGTTNLKAFSLLLDPQSQTSQLISEDTRPSASSSPSSTATAVSNSGQSNATSTSSSSTEPEYKPRNVREKVYADGYIMSFDKKSCCGTKEFWRCERKNDCNARMHSDINTREIVRKLHPHNHEKPSPEELAFYEQDFSTLHPNYCHPVKSINRSYMQRKLSRASHVSQALPIAPQQIKAEPMEVDTTNQTIQNFQQNNNLMLLASINAAATAAAAATSAGISPPVVGQKRVSTTVMPITLKSQRTTPKEEEDSSQLMSQEEFRITYELTKKLMEMMKPKTEIGVRWQGDEGSILLFLSHDNGAEENVFFPVVVMNRDEKSLITALEGFTGKRCEGKLALCYSQRVNVLVHEALISNWTHGKLFLVNTDAPALWRLTPVDAFGEPLNHV” stands “not soluble”; under “MVMHIKQSTVRSMLIVARRGKKRLNLDPDALAVLTALINLLAQESVARAAQSAANTGSRHVTKEHLKRVIAQLMLDFAI”, “not soluble”; under “MGSDKIHHHHHHMITTEAWVLYAGPEQTKKHAPVPGELRRETFQFAGLEDDEALVEPLYGSWEANLDHALSRNPVDICRQRGEEKIVLGNGALVRVVDRGRGAKHPEIGEICMVMPFGKRDQYGFAELVYAYDAPGTIGVMARRTKIRADNLVPVPKGSRHSLLQWATYGRYFTAWDNWKVASKCWRAQLPDVDPADYLVFGWGGGTTLAELQLAKREGFRVAMTASGDKRLADIEKLGITPVDRRRFPHLAYDEERYRSDPEYQAHYRASESAFAEIIGELSGGRGVAIFLDNLGGALYRATMRVIGRTGIVATVGWKTGMRLWNLRATECINRRLHIHTHAWRYDDSEAIRDFQESSDWVGPEPTEIYGFDDVPALASDYVNGKIKTYFPLYQVNPV”, “not soluble”.
Under “MSLGDKKYVKRLLGSCWDYPFSGSGVGITEREAVLRAFGEYTERFIGMYYQFIARDKMIFATYRDLDKMGLNALSPHSIQLFHKRQYQQKDFPYSKFCEDSLIKWMPGKSLITNEEVYVPASFVLTPYIPERGENLISPSVTTGSAAHSNLTQAIINGIYEVIERDTARIYWYGNLRSTKLKVDNKDIKDFIDFIKNKKDIEVIITYMENDLNIPTFMASIIIGKNNRKSVVTGLSSNINPINGLKKAITEAFHTYLWKLLTQPSPKQQLENFTDHVALYLDPKMYIHFIDFINSNEELSLQSLILASAVYSFDSAERHLNMLIRLLKNKVLDLIVVDITPEILRKTGIHVVKVIIPPLLSILAGHIQYLGDKRLYNEGHHHHHH” stands “not soluble”; under “MTVATYEVEKQFLTYVKKIQNYGEALSLMFWDLRTGAPKKGVDQRSEVIGMLSSEVFAMSTSDEMGNYLTELEALISEDKLSETTKKMVEECRKEYDRNKKIPQAEYEAYVKLEAKAESVWEEAREKSDFEMFRPYLEQIVEFKKKFITYWGYETYKYNTLLDMYEPGITVEVLDHVFGQLRERIVPLVKEISESQKRLKTSALSEHFSKEKQKNFTLELLKQLNYDFEAGRLDETVHPFEITLNRGDVRITTRYDEKDFRMAVFGTIHECGHAVYEQNIAEKFEGTPLCSGTSMGIHESQSLFFENFIGRNKSFWKKNYDLLKEYSDGQFNDISVDEFYDAINESKPSFIRIEADELTYPLHVMVRYELEKELFDGTLQVKDLPAAWNDKMEAYLGIRPANDAQGVLQDVHWAGGSFGYFPSYALGYMYAAQFKQRMVKDIPNFDALLEEGNVTPIREWLTENIHQYGKTKKPLEILEDVTGEGLNANYLADYLEAKYREIYEL”, “not soluble”; under “MVRVGILGASGYGGAELLRLLKAHPEVELVGFSSRKYEGRPLEAAWPQLWDGRLFAAQEEVLERAEVVFLALPNGLSMEIAPEALKAGKRVVDLSGDFRLPPEVYEAWYRIPHKSPDLYREAVYGLPELHREELKGARLVANPGCYVTAATLALAPLAAEGVLKGAFVVGLSGVSGAGREAEGTAFAEVNENLKPYKAGGTHRHIPEMERNLGRILAQGRRVRTHGEARAVRLSFTPHLVPMTRGILVTAEAEVEGAWSQESLEALYRDFYAGEPFVRVLKGLPETKATLGSNRVDVRPLYEERTGRVLVFAALDNLVKGMAGQAVQNLNLMLGLPEETALPKEGLWP”, “soluble”.
Take “MACQTGIRANAALRNALNLGKQAKLRLIKIVVNNEEMTPNYEFAGTANWRDDWRACLPDCVDAYEPCFILFRLNTITEWVLITFVDDRAPVREKMLLAATCATFKSEFGQCYIEHEKHVTDLKDLTLNAFEAWLKAKTELGPMSEVERELHNAQQERAAIAHAGPQHMKGVAFPVDRNAEEALRQLASQKLSFVQLSVDTLNEAIKLEGTLESLEPSQLASKVPRDKPRYTFYNFDHTWEGVPQQCTLFIYSLPSSGSSIKERMLYSSCKGPFLSAAQNQYGVVITNKMEVDARDDLSEKALLEVIHPLPVEAPKQFSRPAPPRAGPRRITKV”: the “soluble on expression in E. coli” value was “not soluble”.
